Results on 6 molecules are retold here after doi:10.1101/2020.03.09.984104 (bioRxiv, 2020).

This assay has as its target E. coli Hsp70 (DnaK) (E. coli, UniProt P0A6Y8 1-638). Nature of the assay: SPR. (In general: Surface plasmon resonance follows binding to a sensor surface in real time, without labels.)

E. coli Hsp70 (DnaK), sequence (P0A6Y8 whole entry): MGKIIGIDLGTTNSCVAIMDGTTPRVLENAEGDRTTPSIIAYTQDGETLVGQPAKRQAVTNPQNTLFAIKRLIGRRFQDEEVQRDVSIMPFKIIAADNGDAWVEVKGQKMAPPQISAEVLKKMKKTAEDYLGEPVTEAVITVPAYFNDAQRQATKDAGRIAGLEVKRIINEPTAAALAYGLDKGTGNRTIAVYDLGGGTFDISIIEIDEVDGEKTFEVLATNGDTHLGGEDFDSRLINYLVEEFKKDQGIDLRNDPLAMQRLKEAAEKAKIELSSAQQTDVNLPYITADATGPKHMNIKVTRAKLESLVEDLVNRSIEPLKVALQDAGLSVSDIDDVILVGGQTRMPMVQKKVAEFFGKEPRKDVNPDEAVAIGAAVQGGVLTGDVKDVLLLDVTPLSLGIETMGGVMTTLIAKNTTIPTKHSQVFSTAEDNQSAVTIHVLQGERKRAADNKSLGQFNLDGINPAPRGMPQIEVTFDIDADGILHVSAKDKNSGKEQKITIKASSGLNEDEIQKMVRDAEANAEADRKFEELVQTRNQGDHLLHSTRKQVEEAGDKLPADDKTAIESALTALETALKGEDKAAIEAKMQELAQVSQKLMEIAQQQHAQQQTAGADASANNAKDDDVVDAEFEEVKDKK

Consider GFRVVLMYRF, for which the binding result is on record as “binds”.
Then ANNNMYRR, with “binds”.
In the case of NRLLTG, the binding result is given as “binds”.
Then GFRNNNMYRF, with “binds”; and ALLLMYRR, with “binds”.
Turning to NRNNTG, the binding result was “binds”.
